Experimental findings from patent US20050191293A1 (Bristol-Myers Squibb, published 2005) are described below.

One may read the Ki as the dissociation constant of the complex between target and ligand, obtained from inhibition or displacement. A lower Ki goes with a stronger hold on the target.

The target in assay [1] is T1, human IP-10 (interferon gamma inducible protein 10) (human, UniProt P02778 22-98).
T1 construct: Native IP-10 from THP-1 supernatant and from MS patient CSF in the migration assays is also put under this molecule; also called CXCL10; rhIP-10
T1 sequence (P02778 other isoform, or with tags, fused parts or gaps limits assumed): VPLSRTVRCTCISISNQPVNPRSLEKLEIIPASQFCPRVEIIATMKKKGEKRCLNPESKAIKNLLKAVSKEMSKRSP
Kind of assay: inhibition of 0.100 nM 125I-IP-10 binding to CXCR3-expressing 300.19 cells. The method, then: The cells were grown in RPMI media containing 10% FCS and G418 selection. Prior to use, the cells were washed twice with Hank's Balanced Salt Solution (HBSS) at 4° C. and adjusted to 4×10⁷ cells/ml. Glass fiber plates (Millipore MultiScreen®, Cat. #MAFBNOB50) were blocked with 200 μl of a 0.1% polyethyleneimine solution one day prior to the experiment. On the day of the study, the blocking buffer was aspirated by using a Millipore manifold. The plates were washed three times with 200 μl of binding buffer (50 mM HEPES, pH 7.2, 1 mM CaCl₂, 5 mM MgCl₂, 0.5% BSA). […] The plates were incubated on a plate shaker for 60 minutes at room temperature and washed three times with wash buffer (10 mM HEPES, pH 7.2, 0.5 M NaCl, 0.5% BSA) at a volume of 200 μl per wash. The plates were dried, 25 μl of scintillant was added and the plates were counted on a Wallac Microbeta Counter. Data were analyzed using Prism software and a KD was calculated.
Competition assays were run in a similar manner to the experiment described above. […] Lastly, 25 μl of cells at a density of 1×10⁶ cells per well were added and the plates were incubated on a plate shaker for 60 minutes at room temperature, washed and counted as described above. EC₅₀ values were calculated using Prism software. Kᵢ values (in nM) were determined using the formula: […]

Assay [2] has as its target T1, human IP-10 (interferon gamma inducible …). Kind of assay: cell-based or functional assay.

B1: 1E1 human monoclonal antibody (antibody, V domains shown)
VH: QEQLVESGGNVVQPGRSLRLSCAASGFTFSTYGMHWVRQAPGKGLEWVAVIWYDGSDKYYADSVKDRFTVSKDNSKNTLYLQMNSLRAEDTAVYYCARNIAVADVAFDLWGQGTMVTVSS
VL: not shown
notes: Human IgG with kappa light chain from a hybridoma of transgenic mice
In the case of B1, in assay [1], the Ki stood at 0.29 nM. The “IC50 (nM) for HPBL: inhibition of IP-10-induced calcium flux in anti-CD3 activated human PBLs that express CXCR3” value in assay [2] is 3.64 nM.
